Two substances from IntAct's records for PubMed 22975076 can be followed below.

The assay concerns the target tif1b_human TRIM28 (UniProt Q13263).

tif1b_human TRIM28, sequence (Q13263 whole entry): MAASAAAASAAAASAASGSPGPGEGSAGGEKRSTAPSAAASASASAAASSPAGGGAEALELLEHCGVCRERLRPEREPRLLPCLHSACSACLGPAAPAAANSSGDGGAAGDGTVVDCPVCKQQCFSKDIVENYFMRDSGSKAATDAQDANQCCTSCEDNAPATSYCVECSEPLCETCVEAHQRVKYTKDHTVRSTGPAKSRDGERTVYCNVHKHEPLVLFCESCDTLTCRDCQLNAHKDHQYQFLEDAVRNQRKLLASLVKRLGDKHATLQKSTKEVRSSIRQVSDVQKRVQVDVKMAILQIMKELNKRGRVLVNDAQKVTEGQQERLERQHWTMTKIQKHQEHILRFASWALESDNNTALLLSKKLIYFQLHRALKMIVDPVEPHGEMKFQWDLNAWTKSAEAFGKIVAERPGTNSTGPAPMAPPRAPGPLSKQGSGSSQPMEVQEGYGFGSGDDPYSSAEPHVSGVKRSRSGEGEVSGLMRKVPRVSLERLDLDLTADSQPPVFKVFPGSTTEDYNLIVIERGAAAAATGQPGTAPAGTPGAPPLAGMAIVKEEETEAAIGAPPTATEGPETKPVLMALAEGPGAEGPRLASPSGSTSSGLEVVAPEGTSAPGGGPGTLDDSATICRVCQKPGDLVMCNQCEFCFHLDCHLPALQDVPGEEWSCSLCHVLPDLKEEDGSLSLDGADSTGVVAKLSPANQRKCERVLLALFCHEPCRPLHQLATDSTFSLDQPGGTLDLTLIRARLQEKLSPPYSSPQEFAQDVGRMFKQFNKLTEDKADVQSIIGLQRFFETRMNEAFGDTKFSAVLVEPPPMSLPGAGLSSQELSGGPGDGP

Turning to “Zinc finger protein 350 (Homo sapiens), Q9GZX5 D12A”, the “effect of a mutation on the interaction” value was “decreasing interaction”.
For the substance “Zinc finger protein 350 (Homo sapiens), Q9GZX5 V13A”, the “effect of a mutation on the interaction” value is reported as “decreasing interaction”.
